B1: GpH7-A5/GpH7-B3 variant E269_15Y/GpL16-k0 (antibody, human IgG1, kappa)
heavy 1: not shown
heavy 2: not shown
light: DIVMTQSPLSLPVTPGEPASISCQASESLVHSNRNTYLHWYLQKPGQSPQLLIYKVSNRFSGVPDRFSGSGSGTDFTLKISRVEAEDVGVYYCSQNTHVPPTFGQGTKVEIERTVAAPSVFIFPPSDEQLKSGTASVVCLLNNFYPREAKVQWKVDNALQSGNSQESVTEQDSKDSTYSLSSTLTLSKADYEKHKVYACEVTHQGLSSPVTKSFNRGEC
notes: Heterodimerized anti-glypican-3 IgG1; mutation in the GpH7-B3 chain only; also called He Ab E269Y
B2: GpH7-A5/GpH7-B3 variant E269_16H/GpL16-k0 (antibody, human IgG1, kappa)
heavy 1: not shown
heavy 2: not shown
light: B1 light
notes: Heterodimerized anti-glypican-3 IgG1; mutation in the GpH7-B3 chain only; also called He Ab E269H
B3: GpH7-A5/GpH7-B3 variant E269_18N/GpL16-k0 (antibody, human IgG1, kappa)
heavy 1: not shown
heavy 2: not shown
light: B1 light
notes: Heterodimerized anti-glypican-3 IgG1; mutation in the GpH7-B3 chain only; also called He Ab E269N
B4: GpH7-A5/GpH7-B3 variant H268_06M/GpL16-k0 (antibody, human IgG1, kappa)
heavy 1: not shown
heavy 2: not shown
light: B1 light
notes: Heterodimerized anti-glypican-3 IgG1; mutation in the GpH7-B3 chain only; also called He Ab H268M
B5: GpH7-A5/GpH7-B3 variant H268_07I/GpL16-k0 (antibody, human IgG1, kappa)
heavy 1: not shown
heavy 2: not shown
light: B1 light
notes: Heterodimerized anti-glypican-3 IgG1; mutation in the GpH7-B3 chain only; also called He Ab H268I
B6: GpH7-A5/GpH7-B3 variant H268_08L/GpL16-k0 (antibody, human IgG1, kappa)
heavy 1: not shown
heavy 2: not shown
light: B1 light
notes: Heterodimerized anti-glypican-3 IgG1; mutation in the GpH7-B3 chain only; also called He Ab H268L
B7: GpH7-A5/GpH7-B3 variant H268_11K/GpL16-k0 (antibody, human IgG1, kappa)
heavy 1: not shown
heavy 2: not shown
light: B1 light
notes: Heterodimerized anti-glypican-3 IgG1; mutation in the GpH7-B3 chain only; also called He Ab H268K
B8: GpH7-A5/GpH7-B3 variant H268_14T/GpL16-k0 (antibody, human IgG1, kappa)
heavy 1: not shown
heavy 2: not shown
light: B1 light
notes: Heterodimerized anti-glypican-3 IgG1; mutation in the GpH7-B3 chain only; also called He Ab H268T
B9: GpH7-A5/GpH7-B3 variant S267_04F/GpL16-k0 (antibody, human IgG1, kappa)
heavy 1: not shown
heavy 2: not shown
light: B1 light
notes: Heterodimerized anti-glypican-3 IgG1; mutation in the GpH7-B3 chain only; also called He Ab S267F
B10: GpH7-A5/GpH7-B3 variant S267_05P/GpL16-k0 (antibody, human IgG1, kappa)
heavy 1: not shown
heavy 2: not shown
light: B1 light
notes: Heterodimerized anti-glypican-3 IgG1; mutation in the GpH7-B3 chain only; also called He Ab S267P
B11: GpH7-A5/GpH7-B3 variant S267_11K/GpL16-k0 (antibody, human IgG1, kappa)
heavy 1: not shown
heavy 2: not shown
light: B1 light
notes: Heterodimerized anti-glypican-3 IgG1; mutation in the GpH7-B3 chain only; also called He Ab S267K
B12: GpH7-A5/GpH7-B3 variant S267_12R/GpL16-k0 (antibody, human IgG1, kappa)
heavy 1: not shown
heavy 2: not shown
light: B1 light
notes: Heterodimerized anti-glypican-3 IgG1; mutation in the GpH7-B3 chain only; also called He Ab S267R
B13: GpH7-A5/GpH7-B3 variant S267_15Y/GpL16-k0 (antibody, human IgG1, kappa)
heavy 1: not shown
heavy 2: not shown
light: B1 light
notes: Heterodimerized anti-glypican-3 IgG1; mutation in the GpH7-B3 chain only; also called He Ab S267Y
B14: GpH7-A5/GpH7-B3 variant S267_16H/GpL16-k0 (antibody, human IgG1, kappa)
heavy 1: not shown
heavy 2: not shown
light: B1 light
notes: Heterodimerized anti-glypican-3 IgG1; mutation in the GpH7-B3 chain only; also called He Ab S267H
B15: GpH7-A5/GpH7-B3 variant S267_18N/GpL16-k0 (antibody, human IgG1, kappa)
heavy 1: not shown
heavy 2: not shown
light: B1 light
notes: Heterodimerized anti-glypican-3 IgG1; mutation in the GpH7-B3 chain only; also called He Ab S267N
B16: GpH7-A5/GpH7-B3 variant S267_20W/GpL16-k0 (antibody, human IgG1, kappa)
heavy 1: not shown
heavy 2: not shown
light: B1 light
notes: Heterodimerized anti-glypican-3 IgG1; mutation in the GpH7-B3 chain only; also called He Ab S267W
B17: GpH7-A5/GpH7-B3 variant V266_15Y/GpL16-k0 (antibody, human IgG1, kappa)
heavy 1: not shown
heavy 2: not shown
light: B1 light
notes: Heterodimerized anti-glypican-3 IgG1; mutation in the GpH7-B3 chain only; also called He Ab V266Y
B18: GpH7-A5/GpH7-B3 variant V266_16H/GpL16-k0 (antibody, human IgG1, kappa)
heavy 1: not shown
heavy 2: not shown
light: B1 light
notes: Heterodimerized anti-glypican-3 IgG1; mutation in the GpH7-B3 chain only; also called He Ab V266H
B19: GpH7-A5/GpH7-B3 variant V266_18N/GpL16-k0 (antibody, human IgG1, kappa)
heavy 1: not shown
heavy 2: not shown
light: B1 light
notes: Heterodimerized anti-glypican-3 IgG1; mutation in the GpH7-B3 chain only; also called He Ab V266N
B20: GpH7-A5/GpH7-B3 variant V266_20W/GpL16-k0 (antibody, human IgG1, kappa)
heavy 1: not shown
heavy 2: not shown
light: B1 light
notes: Heterodimerized anti-glypican-3 IgG1; mutation in the GpH7-B3 chain only; also called He Ab V266W

Biological target: T1, FcγRIIb extracellular domain with C-terminal His tag (human, UniProt P31994 43-217)
T1 construct: extracellular domain; Soluble receptor used as analyte in Biacore; also called FcgRIIb; CD32B
T1 sequence (looked up): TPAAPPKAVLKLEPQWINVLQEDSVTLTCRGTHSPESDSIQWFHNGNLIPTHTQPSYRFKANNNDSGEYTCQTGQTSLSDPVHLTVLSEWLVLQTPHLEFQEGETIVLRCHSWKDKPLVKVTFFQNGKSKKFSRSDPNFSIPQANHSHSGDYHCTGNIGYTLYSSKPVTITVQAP
Assay: SPR Biacore, antibody captured on antigen-peptide chip, FcγR as analyte

Going from B1 to B2, the He/Con_2b falls from 44.7 relative, GpH7-A5/GpH7-B3/GpL16-k0 = 100 to 38.5 relative, GpH7-A5/GpH7-B3/GpL16-k0 = 100.

First: B3
Second: B4
The He/Con_2b of the first is lower: 44.8 relative, GpH7-A5/GpH7-B3/GpL16-k0 = 100 for the first, 65.7 relative, GpH7-A5/GpH7-B3/GpL16-k0 = 100 for the second.

Going from B5 to B6, the He/Con_2b falls from 88.9 relative, GpH7-A5/GpH7-B3/GpL16-k0 = 100 to 67.8 relative, GpH7-A5/GpH7-B3/GpL16-k0 = 100.

Compared with B7, B8 is higher in He/Con_2b: 83 relative, GpH7-A5/GpH7-B3/GpL16-k0 = 100 for the first, 86 relative, GpH7-A5/GpH7-B3/GpL16-k0 = 100 for the second.

Going from B9 to B10, the He/Con_2b falls from 48 relative, GpH7-A5/GpH7-B3/GpL16-k0 = 100 to 31.5 relative, GpH7-A5/GpH7-B3/GpL16-k0 = 100.

Going from B11 to B12, the He/Con_2b falls from 12.2 relative, GpH7-A5/GpH7-B3/GpL16-k0 = 100 to 11.3 relative, GpH7-A5/GpH7-B3/GpL16-k0 = 100.

Compared with B13, B14 is higher in He/Con_2b: 37.9 relative, GpH7-A5/GpH7-B3/GpL16-k0 = 100 for the first, 65.9 relative, GpH7-A5/GpH7-B3/GpL16-k0 = 100 for the second.

First: B15
Second: B16
The He/Con_2b of the first is lower: 47.7 relative, GpH7-A5/GpH7-B3/GpL16-k0 = 100 for the first, 57.2 relative, GpH7-A5/GpH7-B3/GpL16-k0 = 100 for the second.

Going from B17 to B18, the He/Con_2b rises from 49.4 relative, GpH7-A5/GpH7-B3/GpL16-k0 = 100 to 57.2 relative, GpH7-A5/GpH7-B3/GpL16-k0 = 100.

Going from B19 to B20, the He/Con_2b rises from 69.7 relative, GpH7-A5/GpH7-B3/GpL16-k0 = 100 to 71.9 relative, GpH7-A5/GpH7-B3/GpL16-k0 = 100.

Biological target: T2, FcγRIa extracellular domain with C-terminal His tag (human, UniProt P12314 16-292)
T2 construct: extracellular domain; Soluble receptor used as analyte in Biacore; also called FcgRI; FcgRIa
Assay: as above

T2 sequence (P12314 16-292): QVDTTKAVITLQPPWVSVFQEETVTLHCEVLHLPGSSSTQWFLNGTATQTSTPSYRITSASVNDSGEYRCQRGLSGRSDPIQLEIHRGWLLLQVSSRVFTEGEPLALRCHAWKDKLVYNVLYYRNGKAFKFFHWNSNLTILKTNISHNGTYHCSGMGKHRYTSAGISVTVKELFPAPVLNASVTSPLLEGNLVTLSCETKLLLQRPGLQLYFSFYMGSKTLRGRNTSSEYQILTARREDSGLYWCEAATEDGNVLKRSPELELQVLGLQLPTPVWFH

B1 and B2 are the same in He/Con_1a: 106 relative, GpH7-A5/GpH7-B3/GpL16-k0 = 100 for the first, 106 relative, GpH7-A5/GpH7-B3/GpL16-k0 = 100 for the second.

Compared with B3, B4 is higher in He/Con_1a: 102 relative, GpH7-A5/GpH7-B3/GpL16-k0 = 100 for the first, 105 relative, GpH7-A5/GpH7-B3/GpL16-k0 = 100 for the second.

First: B5
Second: B6
The He/Con_1a of the first is higher: 108 relative, GpH7-A5/GpH7-B3/GpL16-k0 = 100 for the first, 107 relative, GpH7-A5/GpH7-B3/GpL16-k0 = 100 for the second.

First: B7
Second: B8
The He/Con_1a of the first is lower: 106 relative, GpH7-A5/GpH7-B3/GpL16-k0 = 100 for the first, 112 relative, GpH7-A5/GpH7-B3/GpL16-k0 = 100 for the second.

Compared with B9, B10 is lower in He/Con_1a: 97.7 relative, GpH7-A5/GpH7-B3/GpL16-k0 = 100 for the first, 91.8 relative, GpH7-A5/GpH7-B3/GpL16-k0 = 100 for the second.

Compared with B11, B12 is lower in He/Con_1a: 93.3 relative, GpH7-A5/GpH7-B3/GpL16-k0 = 100 for the first, 92.7 relative, GpH7-A5/GpH7-B3/GpL16-k0 = 100 for the second.

First: B13
Second: B14
The He/Con_1a of the first is lower: 94.2 relative, GpH7-A5/GpH7-B3/GpL16-k0 = 100 for the first, 100 relative, GpH7-A5/GpH7-B3/GpL16-k0 = 100 for the second.

First: B15
Second: B16
The He/Con_1a of the first is higher: 102 relative, GpH7-A5/GpH7-B3/GpL16-k0 = 100 for the first, 99.4 relative, GpH7-A5/GpH7-B3/GpL16-k0 = 100 for the second.

Going from B17 to B18, the He/Con_1a falls from 93.3 relative, GpH7-A5/GpH7-B3/GpL16-k0 = 100 to 89.1 relative, GpH7-A5/GpH7-B3/GpL16-k0 = 100.

Compared with B19, B20 is lower in He/Con_1a: 99.5 relative, GpH7-A5/GpH7-B3/GpL16-k0 = 100 for the first, 91.4 relative, GpH7-A5/GpH7-B3/GpL16-k0 = 100 for the second.

Source: patent US20150344570A1 (published 2015)
